The test concerns the target Drosophila melanogaster GNPTAB homolog, luminal portion (residues 50-630) (Drosophila melanogaster). As to the kind of experiment: cryo-EM structure.

Regarding “Drosophila melanogaster GNPTAB homolog, luminal portion (residues 50-630) (domain or fragment)”, the stoichiometry N stood at 2.

What is called stoichiometry N is a count of units in the complex or per binding partner.

The values are drawn from paper doi:10.1101/2021.03.25.436948.
